± gives the standard error.
B1: library; numbered along this chain (parent)
chain: MATDAALRRLLRLHRTEIAVAVDSAFPLLHALADHDVVPEDKFQETLHLKEKEGCPQAFHALLSWLLTQDSTAILDFWRVLFKDYNLERYGRLQPILDSFPKDVDLSQPRKGRKPPAVPKALVPPPRLPTKRKASEEARAAAPAALTPRGTASPGSQLKAKPPKKPESSAEQQRLPLGNGIQTMSASVQRAVAMSSGDVPGARGAVEGILIQQVFESGGSKKCIQVGGEFYTPSKFEDSGSGKNKARSSSGPKPLVRAKGAQGAAPGGGEARLGQQGSVPAPLALPSDPQLHQKNEDECAVCRDGGELICCDGCPRAFHLACLSPPLREIPSGTWRCSSCLQATVQEVQPRAEEPRPQEPPVETPLPPGLRSAGEEVRGPPGEPLAGMDTTLVYKHLPAPPSAAPLPGLDSSALHPLLCVGPEGQQNLAPGARCGVCGDGTDVLRCTHCAAAFHWRCHFPAGTSRPGTGLRCRSCSGDVTPAPVEGVLAPSPARLAPGPAKDDTASHEPALHRDDLESLLSEHTFDGILQWAIQSMARPAAPFPS

Variants of: B1
Assay: AIRE transcriptional activation functional score (insulin promoter-GFP; nonsense median 0, synonymous median 1) (normalised score); higher = higher AIRE activity (more reporter activation)
Details: with insulin promoter-GFP reporter in HEK293
Procedure: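 Deep mutational scan of full-length human AIRE (codon-optimized cDNA, DT-POPCode NNN libraries over three regions) integrated at a Bxb1 landing pad in HEK293 cells carrying an insulin core promoter-GFP reporter at a Flp-In site. Cells were sorted for the top 10% GFP about 14 days after transfection. Variant frequency log-ratios (select vs non-select, TileSeq) were rescaled so that the nonsense median is 0 and the synonymous median is 1, then averaged over biological replicates.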

AIRE transcriptional activation functional score: each site, then its substitutions
A21: G 0.0519 ± 0.54 | H 0.216 ± 0.22 | I -0.0753 ± 0.15 | L -0.19 ± 0.3 | M 0.432 ± 0.19 | N 0.54 ± 0.18 | P 0.125 ± 0.7 | Q -0.205 ± 0.34 | R 0.00134 ± 0.6 | S 0.0464 ± 0.33 | T -0.00846 ± 0.33 | V 0.278 ± 0.23 | W -0.574 ± 0.14 | Y 0.166 ± 0.29
V22: A 0.0736 ± 0.4 | C -0.0794 ± 0.063 | D -0.245 ± 0.35 | E -1.03 ± 0.95 | F -0.0603 ± 0.13 | G -0.0564 ± 0.39 | H 0.157 ± 0.049 | I 1.57 ± 0.55 | K -1.05 ± 0.071 | L 0.487 ± 0.64 | M -0.505 ± 0.17 | N -0.13 ± 0.44 | P -0.118 ± 0.69 | R 0.528 ± 0.83 | S -0.103 ± 0.51 | T -0.0112 ± 0.23 | W -0.0929 ± 0.089 | Y -0.0365 ± 0.39
D23: A -0.24 ± 0.37 | C -0.0222 ± 0.1 | E 1.02 ± 0.71 | F 0.3 ± 0.21 | G 0.031 ± 0.52 | H 1.33 ± 0.035 | I 0.125 ± 0.62 | K -0.339 ± 0.073 | L -0.372 ± 0.55 | M 0.267 ± 0.36 | N -0.303 ± 1.1 | P -0.613 ± 0.43 | Q -0.673 ± 0.46 | R -0.0795 ± 0.48 | S 0.041 ± 0.23 | T -0.174 ± 0.085 | V -0.286 ± 0.3 | W -1 ± 0.21 | Y -0.199 ± 0.28
S24: A -0.0275 ± 0.75 | C 0.658 ± 0.088 | D 0.577 ± 0.078 | E 0.661 ± 0.12 | F 0.0274 ± 0.26 | G 0.358 ± 0.26 | H -0.0302 ± 0.21 | I 0.123 ± 0.15 | K 1.61 ± 0.099 | L -0.159 ± 0.4 | M 1.04 ± 0.34 | P -0.246 ± 0.32 | Q -0.0656 ± 0.18 | R 0.239 ± 0.83 | T -0.0952 ± 0.28 | V 0.582 ± 0.35 | W -0.0451 ± 0.22 | Y 0.463 ± 0.17
A25: C 0.493 ± 0.17 | D 0.297 ± 0.072 | F 0.583 ± 0.3 | G 0.475 ± 0.28 | H -1.85 ± 0.26 | I 0.925 ± 0.46 | K 0.411 ± 0.087 | L 1.16 ± 0.47 | N -1.11 ± 0.26 | P 0.792 ± 0.57 | Q 0.196 ± 0.14 | R 0.337 ± 0.71 | S 0.301 ± 0.39 | T 0.533 ± 0.11 | V 1.01 ± 0.52 | W -0.59 ± 0.39 | Y -0.882 ± 0.51
F26: A -0.171 ± 0.064 | C -0.0618 ± 0.14 | D 0.00972 ± 0.37 | E -0.35 ± 0.31 | G -0.298 ± 0.2 | H -0.678 ± 0.15 | I -0.664 ± 0.55 | K -0.369 ± 0.25 | L -0.13 ± 0.44 | M -1 ± 0.31 | N 0.281 ± 0.066 | P 0.00822 ± 0.41 | Q -2.95 ± 0.98 | R -0.107 ± 0.71 | S 0.0967 ± 0.64 | T 0.422 ± 0.98 | V -0.0518 ± 0.31 | W 1.21 ± 0.12 | Y -0.359 ± 0.21
P27: A 0.562 ± 0.76 | C -0.00711 ± 0.11 | D -0.285 ± 0.26 | E -0.123 ± 0.26 | F -0.037 ± 0.22 | G 0.0337 ± 0.67 | H 0.254 ± 0.38 | I 0.28 ± 0.099 | K 0.0588 ± 0.14 | L 0.398 ± 0.14 | M -0.268 ± 0.094 | N 0.263 ± 0.048 | Q 0.267 ± 0.15 | R 0.196 ± 0.62 | S 0.41 ± 0.23 | T 0.0492 ± 0.53 | V -0.229 ± 0.27 | W 0.934 ± 0.087 | Y -0.654 ± 0.33
L28: A -0.115 ± 0.52 | C -0.067 ± 0.3 | D -0.558 ± 0.17 | E -1.34 ± 0.96 | F -0.285 ± 0.14 | G 0.239 ± 0.38 | H -2.61 ± 0.94 | I 0.53 ± 0.16 | K 0.863 ± 0.19 | M 0.175 ± 0.25 | N -1.05 ± 0.21 | P 0.00884 ± 0.33 | Q 0.552 ± 0.6 | R 0.297 ± 0.54 | S -0.39 ± 0.52 | T 0.6 ± 0.27 | V 0.05 ± 0.33 | W -2.53 ± 0.92 | Y -0.212 ± 0.28
L29: A -0.0346 ± 0.34 | C -0.201 ± 0.2 | D -0.402 ± 0.66 | F -0.401 ± 0.47 | G -0.175 ± 0.35 | H -0.121 ± 0.22 | I 0.187 ± 0.2 | K 0.34 ± 0.67 | M -0.19 ± 0.15 | N 0.195 ± 0.28 | P -0.138 ± 0.54 | Q 0.317 ± 0.23 | R 0.468 ± 0.39 | S -0.0413 ± 0.26 | T -0.208 ± 0.21 | V 0.342 ± 0.35 | W 0.224 ± 0.056 | Y -0.0248 ± 0.12
H30: A -0.75 ± 0.63 | C 0.429 ± 0.26 | D 0.0821 ± 0.2 | E 0.323 ± 0.48 | F 0.0787 ± 0.23 | G 0.000219 ± 0.62 | I -0.51 ± 0.27 | K 0.682 ± 0.08 | L 0.0371 ± 0.59 | M 0.839 ± 0.14 | N 0.384 ± 0.43 | P -0.0919 ± 0.43 | Q -0.357 ± 0.12 | R 0.24 ± 0.49 | S 0.156 ± 0.39 | T -0.172 ± 0.23 | V -0.417 ± 0.44 | W -0.339 ± 0.39 | Y 1.23 ± 0.46
A31: C -0.0426 ± 0.23 | D 0.894 ± 0.32 | F -0.218 ± 0.19 | G 0.0886 ± 0.44 | H -0.698 ± 0.13 | I 0.231 ± 0.82 | L 0.635 ± 0.32 | N -0.416 ± 0.14 | P -0.0989 ± 0.14 | Q 0.778 ± 0.11 | R -0.0467 ± 0.41 | S 0.0612 ± 0.88 | T -0.678 ± 1.2 | V -0.00796 ± 0.32 | W -0.0372 ± 0.065 | Y 1.22 ± 0.37
L32: A -0.972 ± 0.61 | C -0.199 ± 0.51 | F -0.313 ± 0.24 | G -0.111 ± 0.79 | H -0.413 ± 0.21 | I -0.434 ± 1.1 | M -0.0821 ± 0.26 | N -0.605 ± 0.18 | P -0.841 ± 0.94 | Q -0.665 ± 0.32 | R -0.205 ± 0.63 | S -0.125 ± 0.35 | T -0.512 ± 0.21 | V -0.331 ± 0.24 | W -1.32 ± 0.41 | Y 0.28 ± 0.36
A33: C 0.846 ± 0.16 | D -1.07 ± 0.73 | E 0.898 ± 0.21 | F 0.348 ± 0.42 | G 0.554 ± 0.5 | I -1.54 ± 0.91 | K -0.895 ± 0.42 | L 0.173 ± 0.67 | N 1.58 ± 0.065 | P -0.0164 ± 0.67 | R -0.705 ± 0.25 | S 0.0699 ± 0.49 | T 0.426 ± 0.27 | V 1.53 ± 0.84 | W 0.679 ± 0.29 | Y 0.238 ± 0.87
D34: A -0.1 ± 0.32 | C -0.617 ± 0.33 | E -2.11 ± 1.8 | F 0.247 ± 0.14 | G 0.43 ± 0.24 | H 1.62 ± 0.13 | I -0.247 ± 0.39 | L 0.437 ± 0.75 | M -1.08 ± 0.3 | N 0.331 ± 0.084 | P 0.782 ± 0.41 | Q -0.011 ± 0.19 | R -0.24 ± 0.92 | S -0.594 ± 0.38 | T -1.22 ± 0.19 | V 0.0819 ± 0.32 | W -0.393 ± 0.11 | Y -0.0055 ± 0.37
H35: A 0.00595 ± 0.49 | C -0.102 ± 0.14 | D -0.476 ± 0.17 | E -0.848 ± 0.6 | F 0.0268 ± 0.2 | G 0.0779 ± 0.72 | I 0.107 ± 0.2 | K -0.196 ± 0.2 | L -0.231 ± 0.32 | M -0.719 ± 0.084 | N 0.76 ± 0.11 | P 0.148 ± 0.28 | Q -0.305 ± 0.25 | R -0.213 ± 0.43 | S 0.352 ± 0.36 | T -0.0166 ± 0.64 | V 0.15 ± 0.43 | W 0.553 ± 0.31 | Y 0.805 ± 0.27
D36: A 0.22 ± 0.32 | C -0.525 ± 0.023 | E 1.34 ± 0.57 | F -0.636 ± 0.15 | G 0.788 ± 0.32 | H -1.75 ± 0.66 | I 0.0675 ± 0.45 | K 0.212 ± 0.12 | L -0.0069 ± 0.61 | M -0.672 ± 0.13 | N 1.07 ± 0.59 | P 0.171 ± 0.53 | Q -0.178 ± 0.26 | R 0.583 ± 0.84 | S 0.294 ± 0.28 | T -0.367 ± 0.13 | V -0.422 ± 0.26 | W 0.641 ± 0.048 | Y 0.501 ± 0.13
V37: A -0.162 ± 0.092 | C -0.563 ± 0.26 | D 0.512 ± 0.35 | E -0.336 ± 0.2 | F 0.178 ± 0.24 | G 0.192 ± 0.36 | H 0.218 ± 0.17 | I 0.337 ± 0.18 | K 0.536 ± 0.23 | L -0.0654 ± 0.45 | M -1.53 ± 0.17 | R 0.122 ± 0.4 | S -0.316 ± 0.64 | W -0.538 ± 0.062 | Y 0.262 ± 0.11
V38: A -0.245 ± 0.75 | C 0.438 ± 0.22 | D -0.427 ± 0.2 | F -0.138 ± 0.2 | G -0.618 ± 0.43 | I 1.55 ± 0.76 | K 0.354 ± 0.16 | L 0.157 ± 0.43 | M 0.387 ± 0.074 | N -0.701 ± 0.037 | P -0.205 ± 0.17 | Q -0.0109 ± 0.15 | R 0.941 ± 0.6 | S -0.704 ± 0.47 | T 0.604 ± 0.24 | W -0.576 ± 0.14 | Y 0.622 ± 0.26
P39: A -0.568 ± 0.77 | E 0.999 ± 0.066 | F 1.34 ± 0.45 | G -0.241 ± 0.19 | H 0.277 ± 0.43 | K -0.314 ± 0.072 | L -0.0747 ± 0.48 | M -0.22 ± 0.14 | Q 0.348 ± 0.4 | R 0.0519 ± 0.47 | S 0.402 ± 1.2 | T 1.25 ± 0.41 | V -1.34 ± 0.49 | W 0.403 ± 0.26 | Y -1.28 ± 0.23
E40: A -0.436 ± 0.32 | C -1.11 ± 0.58 | D 0.418 ± 0.94
